According to US20030023034A1 (published 2003):

Biological target: T1, cyclophilin B (GenBank Accession No. M60857) (UniProt P23284 34-216, limits assumed)
T1 construct: Yeast two-hybrid fusion; also called CYC-B
Test: yeast matrix mating test (two-hybrid), growth on selective medium
Description: Briefly, cells were grown until mid-to-late log phase on media that selected for the presence of the appropriate plasmids. The two mating strains, alpha and a, were then, diluted in YAPD media, filtered onto nitrocellulose membranes, and incubated at 30 degrees Celsius for 6-8 hours. The cells were then transferred to media selective for the desired diploids, i.e., yeast harboring reporter genes for beta-galactosidase, uracil auxotrophy, and histidine auxotrophy, and expression of the vectors encoding the bait and prey. The mating products were plated on SC (synthetic complete) (Sambrook et al., 1989, A Laboratory Manual, 2nd Ed., Cold Spring Harbor Press, New York) media lacking adenine and lysine (to select for successful mating), leucine and tryptophan (to select for expression of genes encoded by both plasmids), and uracil and histidine (to select for protein interactions). This medium is herein referred to as SCS medium, for SC Selective medium.
To test for the specificity of p27(Kip1):FKBP-12 interaction, two general tests were first performed. In the first instance, YULH cells expressing FKBP-12 were created and plated on SC (synthetic complete) −Ura plates, grown for 1-2 days, and examined for growth. […]

T1 sequence (P23284 34-216 limits assumed, one chain of several): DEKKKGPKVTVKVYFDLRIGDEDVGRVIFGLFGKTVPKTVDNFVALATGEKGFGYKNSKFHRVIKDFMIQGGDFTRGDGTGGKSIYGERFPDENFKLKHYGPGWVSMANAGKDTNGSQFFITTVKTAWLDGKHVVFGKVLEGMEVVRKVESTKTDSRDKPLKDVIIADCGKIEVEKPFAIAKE

binding result: no binding
B1: p27(Kip1) (other)
chain: RDLEKHCRDMEEASQRKWNFDFQNHKPLEGKYEWQEVEKGSLPEFYYRPPRPPKGACKVPAQESQDVSGSRPAAPLIGAPANSEDTHLVDPKTDPSDSQTGLAEQCAGIRKRPATDDSSTQNKRANRTEENVSDGSPNAGSVEQTPKKPGLRRRQT
notes: Yeast two-hybrid fusion expressed in yeast; also called p27(Kip1) bait
